Data reported in publication PMC2843395 (Journal of molecular biology, 2010).
Read-outs that look alike come from different tables or passages of the source. Each block holds one molecule with its values, some of them ahead of it. *: point of attachment. TAMRA = 5-carboxytetramethylrhodamine, CN(C)c1ccc2c(-c3ccc(C(=O)*)cc3C(=O)[O-])c3ccc(=[N+](C)C)cc-3oc2c1

B1: S100B (wild-type, recombinant) (natural protein, bovine)
chain: MSELEKAVVALIDVFHQYSGREGDKHKLKKSELKELINNELSHFLEEIKEQEVVDKVMETLDSDGDGECDFQEFMAFVAMITTACHEFFEHE

Experiments:
E72A mutant of S100B = experiment: fluorescence polarisation
S100B (tight site, EF2) [1] = target: T1, S100B (tight site, EF2) (Bos taurus, UniProt P02638); details: p53^367–388; ref [21]; cited from earlier work
T1 sequence (P02638 1-92): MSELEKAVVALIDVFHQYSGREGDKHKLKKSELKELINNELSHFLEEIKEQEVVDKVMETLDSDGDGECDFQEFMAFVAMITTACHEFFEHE

S100B (tight site, EF2) [2] = target: T1, S100B (tight site, EF2); details: p53^367–388; ref [21]; cited from earlier work; remark: listed apart in the source
TAMRA-TRTK12-am = experiment: fluorescence polarisation
[3] = target: S100B (Rattus norvegicus) (UniProt P04631); details: cited from earlier work
[4] = target: B1; experiment: fluorescence polarisation
[5] = target: B1; experiment: fluorescence polarisation; remark: listed apart in the source
[6] = target: B1; experiment: crystal structure
crystal structure = target: the molecule itself; experiment: crystal structure
[7] = target: B1; experiment: fluorescence polarisation; remark: listed apart in the source
[8] = target: B1; experiment: fluorescence polarisation; remark: listed apart in the source

Molecule: p53^367–388: peptide derived from the negative regulatory domain of p53 (residues 367–388)
Fold increase in Ca2+ affinity of S100B EF2 with p53 peptide bound (S100B (tight site, EF2) [1]): 3 fold
Fold increase in Mn2+ binding of S100B with p53 peptide bound (S100B (tight site, EF2) [2]): 3 fold

Molecule: S100B (from UniProt P04631)
Kd [3]: < 1 nM

Molecule: TRTKIDWNKILS [TRTK-12 peptide (derived from the actin capping protein CapZ, residues 265-276)]
Kd [4]: 2900 ± 500 nM
Kd [5]: 3000 ± 1000 nM
stoichiometry N [6]: 1 per S100B subunit

Molecule: B1
stoichiometry N (crystal structure): 2

B2: TAMRA-TRTK12-am (peptide)
peptide: {TAMRA}-TRTKIDWNKILS-NH2
SMILES: CC[C@H](C)[C@H](NC(=O)[C@H](CCCCN)NC(=O)[C@H](CC(N)=O)NC(=O)[C@H](Cc1c[nH]c2ccccc12)NC(=O)[C@H](CC(=O)O)NC(=O)[C@@H](NC(=O)[C@H](CCCCN)NC(=O)[C@@H](NC(=O)[C@H](CCCNC(=N)N)NC(=O)[C@@H](NC(=O)c1ccc(-c2c3ccc(=[N+](C)C)cc-3oc3cc(N(C)C)ccc23)c(C(=O)[O-])c1)[C@@H](C)O)[C@@H](C)O)[C@@H](C)CC)C(=O)N[C@@H](CC(C)C)C(=O)N[C@@H](CO)C(N)=O
Kd [7]: 1200 ± 200 nM
Kd [8]: 6000 ± 2000 nM

Further lines, results first:

Kapp (E72A mutant of S100B): 110 µM
Kd (E72A mutant of S100B): 3200 nM
Molecule: TRTK-12 peptide (derived from the actin capping protein CapZ, residues 265-276)

Kd (TAMRA-TRTK12-am): 16800 nM
Molecule: E72A mutant of S100B (natural protein)
